The values below come from patent publication US20200079833A1 (AstraZeneca / MedImmune, published 2020).

Common to all, as to experiment: cell-based or functional assay
Assay [1] addresses GLP-1 receptor (GLP-1R), primary cAMP assay cell line (human, UniProt P43220 24-463).
Assay [2] has as its target glucagon receptor (GCGR), primary cAMP assay cell line (human, UniProt P47871 26-477).
For assay [3], the target named is T1, glucose-dependent insulinotropic peptide (gastric inhibitory polypeptide) receptor (GIPR), primary cAMP assay … (human, UniProt P48546 22-466).
T1 sequence (looked up): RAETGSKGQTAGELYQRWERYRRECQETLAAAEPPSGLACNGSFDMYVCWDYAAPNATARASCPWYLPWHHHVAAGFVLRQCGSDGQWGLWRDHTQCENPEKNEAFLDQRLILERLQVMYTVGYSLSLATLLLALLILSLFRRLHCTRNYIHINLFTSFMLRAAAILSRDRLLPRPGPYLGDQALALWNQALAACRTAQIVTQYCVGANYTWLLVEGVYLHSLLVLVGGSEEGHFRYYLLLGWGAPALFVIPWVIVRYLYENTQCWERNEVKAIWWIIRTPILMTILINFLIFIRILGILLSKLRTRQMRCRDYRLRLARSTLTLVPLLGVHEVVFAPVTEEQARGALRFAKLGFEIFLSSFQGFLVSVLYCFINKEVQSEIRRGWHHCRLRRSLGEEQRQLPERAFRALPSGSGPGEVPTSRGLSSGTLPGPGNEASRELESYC

The target in a further assay is glucagon receptor (GCGR) (human, UniProt P47871 26-477).
Another assay has as its target GLP-1 receptor (GLP-1R) (human, UniProt P43220 24-463).
The target of assay [4] is T2, glucose-dependent insulinotropic peptide (gastric inhibitory polypeptide) receptor (GIPR) (human, UniProt P48546 22-466).
T2 sequence (looked up): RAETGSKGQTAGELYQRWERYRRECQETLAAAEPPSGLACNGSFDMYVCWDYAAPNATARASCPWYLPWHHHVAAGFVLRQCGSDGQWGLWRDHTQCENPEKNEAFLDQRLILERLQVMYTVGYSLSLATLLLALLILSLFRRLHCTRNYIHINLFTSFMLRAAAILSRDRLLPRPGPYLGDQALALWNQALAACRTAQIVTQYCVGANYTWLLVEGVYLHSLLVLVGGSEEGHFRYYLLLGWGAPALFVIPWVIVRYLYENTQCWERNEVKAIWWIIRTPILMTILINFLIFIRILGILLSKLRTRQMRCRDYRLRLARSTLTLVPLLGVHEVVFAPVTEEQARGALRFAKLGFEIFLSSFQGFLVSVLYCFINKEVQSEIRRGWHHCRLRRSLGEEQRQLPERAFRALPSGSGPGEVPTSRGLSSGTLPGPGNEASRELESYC

Starred links: 1 amine or outer side, 2 acyl side, 3 side chain; linkers in the order of their positions; H or OH if unused. Non-standard residues stand in square brackets, D forms with d. Groups on a side chain read outwards from the residue. Primed or numbered codes have the meaning given here. No end group written: not given here. *: point of attachment. γGlu = O=C(O)[C@H](CCC(=O)[*:2])N[*:1]; Stearoyl = CCCCCCCCCCCCCCCCCC(=O)*; αMeF = C[C@](N)(Cc1ccccc1)C(=O)O; αMeK = C[C@](N)(CCCCN)C(=O)O; Lauroyl = CCCCCCCCCCCC(=O)*; αMeS = C[C@](N)(CO)C(=O)O; PEG2′ = not defined here; Aib = CC(C)(N)C(=O)O

glucagon receptor (GCGR), sequence (P47871 26-477): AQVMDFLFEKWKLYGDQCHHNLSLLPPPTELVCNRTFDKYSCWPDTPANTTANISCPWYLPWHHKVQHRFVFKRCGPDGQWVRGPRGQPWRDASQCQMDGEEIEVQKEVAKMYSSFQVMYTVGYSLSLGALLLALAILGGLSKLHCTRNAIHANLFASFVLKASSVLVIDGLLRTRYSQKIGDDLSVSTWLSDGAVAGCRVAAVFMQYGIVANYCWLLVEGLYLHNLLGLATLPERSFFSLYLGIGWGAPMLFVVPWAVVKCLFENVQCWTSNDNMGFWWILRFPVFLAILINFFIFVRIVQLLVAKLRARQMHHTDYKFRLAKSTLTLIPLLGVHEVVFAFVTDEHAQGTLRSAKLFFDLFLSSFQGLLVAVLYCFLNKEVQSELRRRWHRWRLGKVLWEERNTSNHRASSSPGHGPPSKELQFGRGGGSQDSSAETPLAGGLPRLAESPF
glucagon receptor (GCGR), primary cAMP assay cell line, sequence (P47871 26-477): as above

H[Aib]EGS[αMeF]TSDV[αMeS]SYK([PEG2′-PEG2′-γGlu-Lauroyl])EK([PEG2′-PEG2′-γGlu-Lauroyl])EAA[αMeK]EFIAFK([PEG2′-PEG2′-γGlu-Lauroyl])VEGG-NH2 [SEQ ID NO: 483]: in assay [1], the “cAMP Primary assay EC50, Mean pM GLP-1R” value stood at 244 pM; the “cAMP Primary assay EC50, n1” value was 0.229 nM; the “cAMP Primary assay EC50, n2” value was determined as 0.258 nM. Moreover, in assay [2], the “cAMP Primary assay EC50, n1” value turned out to be 19.6 nM and the “cAMP Primary assay EC50, n2” value was 19.6 nM. Also, in assay [3], the “cAMP Primary assay EC50, n1” value is 19.6 nM and the “cAMP Primary assay EC50, n2” value was 19.6 nM.

Consider H[Aib]EGS[αMeF]TSDV[αMeS]SK([PEG2′-PEG2′-γGlu-Lauroyl])LEK([PEG2′-PEG2′-γGlu-Lauroyl])EAA[αMeK]EFIAFK([PEG2′-PEG2′-γGlu-Lauroyl])VEGG-NH2 [SEQ ID NO: 479], for which, in assay [1], the “cAMP Primary assay EC50, Mean pM GLP-1R” value came out at 186 pM; the “cAMP Primary assay EC50, n1” value is 0.132 nM; the “cAMP Primary assay EC50, n2” value is 0.239 nM. Also, in assay [2], the “cAMP Primary assay EC50, n1” value was 19.8 nM and the “cAMP Primary assay EC50, n2” value was found to be 19.8 nM. In addition, in assay [3], the “cAMP Primary assay EC50, n1” value came to 19.8 nM and the “cAMP Primary assay EC50, n2” value worked out at 19.8 nM.

For the molecule H[Aib]EGS[αMeF]TSDV[αMeS]S[αMeF]LEGEAAK([PEG2′-PEG2′-PEG2′-Stearoyl])E[αMeF]IA[αMeF]VV[αMeK]GG-NH2 [SEQ ID NO 154], in the assay with glucagon receptor (GCGR), the “Primary assay EC50 (cAMP), Gluc-R, first run” value was 26 nM and the “Primary assay EC50 (cAMP), Gluc-R, second run” value amounted to 26 nM. Further, in the assay with GLP-1 receptor (GLP-1R), the “Primary assay EC50 (cAMP), GLP-1R n1” value turned out to be 0.0028 nM; the “Primary assay EC50 (cAMP), GLP-1R n2” value stood at 0.0023 nM; the “Primary assay EC50 (cAMP), Mean pM GLP-1R” value is 2.5 pM. Also, in assay [4], the “Primary assay EC50 (cAMP), GIP-R, first run” value was determined as 26 nM and the “Primary assay EC50 (cAMP), GIP-R, second run” value stood at 26 nM.

On to H[Aib]EGS[αMeF]TSDV[αMeS]SYK([PEG2′-PEG2′-γGlu-Lauroyl])EGK([PEG2′-PEG2′-γGlu-Lauroyl])AA[αMeK]EFIAFK([PEG2′-PEG2′-γGlu-Lauroyl])VEGG-NH2 [SEQ ID NO: 484], for which the “cAMP Primary assay EC50, Mean pM GLP-1R” value in assay [1] was 166 pM. Further, the figures for the “cAMP Primary assay EC50, n1” value in assay [1], in assay [2] and in assay [3] were 0.163 nM, 19.9 nM and 19.9 nM, respectively. The “cAMP Primary assay EC50, n2” value was 0.168 nM in assay [1], 19.9 nM in assay [2] and 19.9 nM in assay [3].

B1: SEQ ID NO 155 (peptide)
peptide: H[Aib]EGS[αMeF]TSDV[αMeS]S[αMeF]LEGEAAK([γGlu-Stearoyl])E[αMeF]IA[αMeF]VV[αMeK]GG-NH2
modifications: N-terminus assumed
SMILES: CCCCCCCCCCCCCCCCCC(=O)N[C@@H](CCC(=O)NCCCC[C@H](NC(=O)[C@H](C)NC(=O)[C@H](C)NC(=O)[C@H](CCC(=O)O)NC(=O)CNC(=O)[C@H](CCC(=O)O)NC(=O)[C@H](CC(C)C)NC(=O)[C@](C)(Cc1ccccc1)NC(=O)[C@H](CO)NC(=O)[C@](C)(CO)NC(=O)[C@@H](NC(=O)[C@H](CC(=O)O)NC(=O)[C@H](CO)NC(=O)[C@@H](NC(=O)[C@](C)(Cc1ccccc1)NC(=O)[C@H](CO)NC(=O)CNC(=O)[C@H](CCC(=O)O)NC(=O)C(C)(C)NC(=O)[C@@H](N)Cc1c[nH]cn1)[C@@H](C)O)C(C)C)C(=O)N[C@@H](CCC(=O)O)C(=O)N[C@@](C)(Cc1ccccc1)C(=O)N[C@H](C(=O)N[C@@H](C)C(=O)N[C@@](C)(Cc1ccccc1)C(=O)N[C@H](C(=O)N[C@H](C(=O)N[C@@](C)(CCCCN)C(=O)NCC(=O)NCC(N)=O)C(C)C)C(C)C)[C@@H](C)CC)C(=O)O
Turning to B1, in the assay with glucagon receptor (GCGR), the “Primary assay EC50 (cAMP), Gluc-R, first run” value was found to be 28 nM and the “Primary assay EC50 (cAMP), Gluc-R, second run” value came to 28 nM. Also, in the assay with GLP-1 receptor (GLP-1R), the “Primary assay EC50 (cAMP), GLP-1R n1” value came out at 0.29 nM; the “Primary assay EC50 (cAMP), GLP-1R n2” value stood at 0.19 nM; the “Primary assay EC50 (cAMP), Mean pM GLP-1R” value was determined as 238 pM. In addition, in assay [4], the “Primary assay EC50 (cAMP), GIP-R, first run” value was 28 nM and the “Primary assay EC50 (cAMP), GIP-R, second run” value turned out to be 28 nM.

Turning to H[Aib]EGS[αMeF]TSDV[αMeS]SYK([PEG2′-PEG2′-γGlu-Lauroyl])EGEAA[αMeK]K([PEG2′-PEG2′-γGlu-Lauroyl])FIAFK([PEG2′-PEG2′-γGlu-Lauroyl])VEGG-NH2 [SEQ ID NO: 486], in assay [1], the “cAMP Primary assay EC50, Mean pM GLP-1R” value was found to be 212 pM; the “cAMP Primary assay EC50, n1” value is 0.165 nM; the “cAMP Primary assay EC50, n2” value came out at 0.259 nM. In assay [2], the “cAMP Primary assay EC50, n1” value was 19.9 nM and the “cAMP Primary assay EC50, n2” value is 19.9 nM. Further, in assay [3], the “cAMP Primary assay EC50, n1” value was found to be 19.9 nM and the “cAMP Primary assay EC50, n2” value came out at 19.9 nM.

H[Aib]EGS[αMeF]TSDV[αMeS]SK([PEG2′-PEG2′-γGlu-Lauroyl])LEGEK([PEG2′-PEG2′-γGlu-Lauroyl])A[αMeK]EFIAFK([PEG2′-PEG2′-γGlu-Lauroyl])VEGG-NH2 [SEQ ID NO: 481]: in assay [1], the “cAMP Primary assay EC50, Mean pM GLP-1R” value was 143 pM; the “cAMP Primary assay EC50, n1” value came to 0.137 nM; the “cAMP Primary assay EC50, n2” value worked out at 0.149 nM. Further, in assay [2], the “cAMP Primary assay EC50, n1” value was 19.8 nM and the “cAMP Primary assay EC50, n2” value stood at 19.8 nM. Moreover, in assay [3], the “cAMP Primary assay EC50, n1” value was 19.8 nM and the “cAMP Primary assay EC50, n2” value turned out to be 19.8 nM.

For the molecule H[Aib]EGS[αMeF]TSDV[αMeS]S[αMeF]LEGEAAK([PEG2′-PEG2′-Stearoyl])E[αMeF]IA[αMeF]VV[αMeK]GG-NH2 [SEQ ID NO 153], in the assay with glucagon receptor (GCGR), the “Primary assay EC50 (cAMP), Gluc-R, first run” value was found to be 27 nM and the “Primary assay EC50 (cAMP), Gluc-R, second run” value was determined as 27 nM. In the assay with GLP-1 receptor (GLP-1R), the “Primary assay EC50 (cAMP), GLP-1R n1” value was 0.0079 nM; the “Primary assay EC50 (cAMP), GLP-1R n2” value came out at 0.005 nM; the “Primary assay EC50 (cAMP), Mean pM GLP-1R” value is 6.4 pM. In assay [4], the “Primary assay EC50 (cAMP), GIP-R, first run” value turned out to be 27 nM and the “Primary assay EC50 (cAMP), GIP-R, second run” value was 27 nM.

On to H[Aib]EGS[αMeF]TSDV[αMeS]SYK([PEG2′-PEG2′-γGlu-Lauroyl])EGEK([PEG2′-PEG2′-γGlu-Lauroyl])A[αMeK]EFIAFK([PEG2′-PEG2′-γGlu-Lauroyl])VEGG-NH2 [SEQ ID NO: 485], for which, in assay [1], the “cAMP Primary assay EC50, Mean pM GLP-1R” value worked out at 196 pM; the “cAMP Primary assay EC50, n1” value is 0.167 nM; the “cAMP Primary assay EC50, n2” value was 0.224 nM. Also, in assay [2], the “cAMP Primary assay EC50, n1” value worked out at 19.6 nM and the “cAMP Primary assay EC50, n2” value was found to be 19.6 nM. For the same molecule, in assay [3], the “cAMP Primary assay EC50, n1” value turned out to be 19.6 nM and the “cAMP Primary assay EC50, n2” value is 19.6 nM.

B2: SEQ ID NO 156 (peptide)
peptide: H[Aib]EGS[αMeF]TSDV[αMeS]S[αMeF]LEGEAAK([γGlu-γGlu-Stearoyl])E[αMeF]IA[αMeF]VV[αMeK]GG-NH2
modifications: N-terminus assumed
SMILES: CCCCCCCCCCCCCCCCCC(=O)N[C@@H](CCC(=O)N[C@@H](CCC(=O)NCCCC[C@H](NC(=O)[C@H](C)NC(=O)[C@H](C)NC(=O)[C@H](CCC(=O)O)NC(=O)CNC(=O)[C@H](CCC(=O)O)NC(=O)[C@H](CC(C)C)NC(=O)[C@](C)(Cc1ccccc1)NC(=O)[C@H](CO)NC(=O)[C@](C)(CO)NC(=O)[C@@H](NC(=O)[C@H](CC(=O)O)NC(=O)[C@H](CO)NC(=O)[C@@H](NC(=O)[C@](C)(Cc1ccccc1)NC(=O)[C@H](CO)NC(=O)CNC(=O)[C@H](CCC(=O)O)NC(=O)C(C)(C)NC(=O)[C@@H](N)Cc1c[nH]cn1)[C@@H](C)O)C(C)C)C(=O)N[C@@H](CCC(=O)O)C(=O)N[C@@](C)(Cc1ccccc1)C(=O)N[C@H](C(=O)N[C@@H](C)C(=O)N[C@@](C)(Cc1ccccc1)C(=O)N[C@H](C(=O)N[C@H](C(=O)N[C@@](C)(CCCCN)C(=O)NCC(=O)NCC(N)=O)C(C)C)C(C)C)[C@@H](C)CC)C(=O)O)C(=O)O
In the case of B2, in the assay with glucagon receptor (GCGR), the “Primary assay EC50 (cAMP), Gluc-R, first run” value was determined as 27 nM and the “Primary assay EC50 (cAMP), Gluc-R, second run” value was 27 nM. In the assay with GLP-1 receptor (GLP-1R), the “Primary assay EC50 (cAMP), GLP-1R n1” value was 0.11 nM; the “Primary assay EC50 (cAMP), GLP-1R n2” value amounted to 0.1 nM; the “Primary assay EC50 (cAMP), Mean pM GLP-1R” value turned out to be 105 pM. Besides, in assay [4], the “Primary assay EC50 (cAMP), GIP-R, first run” value came out at 27 nM and the “Primary assay EC50 (cAMP), GIP-R, second run” value is 27 nM.
